The results in this text go back to publication PMC7674511 (2020).

The chains are these.
B1: FLAG-BAG6(1-266aa) [not stated] / GFP-LC3B [not stated] (parent complex)
chain 1: MEPNDSTSTAVEEPDSLEVLVKTLDSQTRTFIVGAQMNVKEFKEHIAASVSIPSEKQRLIYQGRVLQDDKKLQEYNVGGKVIHLVERAPPQTHLPSGASSGTGSASATHGGGSPPGTRGPGASVHDRNANSYVMVGTFNLPSDGSAVDVHINMEQAPIQSEPRVRLVMAQHMIRDIQTLLSRMECRGGPQPQHSQPPPQPPAVTPEPVALSSQTSEPVESEAPPREPMEAEEVEERAPAQNPELTPGPAPAGPTPAPETNAPNHPS
chain 2: not shown
B2: BAG6 LIR1 peptide (residues 124-143) [modified: FITC label (position not stated), told for the anisotropy assay; FITC label (position not stated), told for the anisotropy assay] [not stated] / LC3B-I [not stated] (parent complex)
chain 1: VHDRNANSYVMVGTFNLPSD
chain 2: not shown

Variants of B1 are the subject of the first assay. Kind of assay: co-immunoprecipitation (FLAG pulldown with anti-FLAG beads, immunoblot); HEK293FT cells transfected with GFP-LC3B and FLAG-BAG6(1-266aa) constructs. In general terms: Immunoblotting shows a protein as a band on a membrane.
Take chain 1 Y132A, chain 1 V133A, chain 1 M134A, chain 1 V135A: the ratio to parent turned out to be 0.23.

For the variant chain 1 Y132A, chain 1 V135A, the ratio to parent amounted to 0.79.

The next assay covers variants of B2. Kind of assay: fluorescence anisotropy; FITC-labeled peptide 1 μM; read at the highest LC3B-I concentration plotted (about 48 μM); read off a plot. On the technique in general: Fluorescence polarisation rises when a labelled molecule tumbles more slowly, as on binding a larger partner.
Regarding chain 1 Y9A, chain 1 V12A, the response was approximately 0.001.
